The values below come from doi:10.1101/2021.10.13.464218 (bioRxiv, 2021).

The target in experiment [1] is intimin (EHEC adhesin), overexpressed on the E. coli surface (Escherichia coli O157:H7 (EHEC), …, UniProt P43261). In words: flow cytometry on cells.
Experiment [2] addresses Ag2 (EPEA), displayed on E. coli (synthetic EPEA peptide tag (sequence …)). In words: flow cytometry on cells. For orientation: In flow cytometry, cells or beads pass a laser one at a time.

intimin (EHEC adhesin), overexpressed on the E. coli surface, sequence (P43261 40-934): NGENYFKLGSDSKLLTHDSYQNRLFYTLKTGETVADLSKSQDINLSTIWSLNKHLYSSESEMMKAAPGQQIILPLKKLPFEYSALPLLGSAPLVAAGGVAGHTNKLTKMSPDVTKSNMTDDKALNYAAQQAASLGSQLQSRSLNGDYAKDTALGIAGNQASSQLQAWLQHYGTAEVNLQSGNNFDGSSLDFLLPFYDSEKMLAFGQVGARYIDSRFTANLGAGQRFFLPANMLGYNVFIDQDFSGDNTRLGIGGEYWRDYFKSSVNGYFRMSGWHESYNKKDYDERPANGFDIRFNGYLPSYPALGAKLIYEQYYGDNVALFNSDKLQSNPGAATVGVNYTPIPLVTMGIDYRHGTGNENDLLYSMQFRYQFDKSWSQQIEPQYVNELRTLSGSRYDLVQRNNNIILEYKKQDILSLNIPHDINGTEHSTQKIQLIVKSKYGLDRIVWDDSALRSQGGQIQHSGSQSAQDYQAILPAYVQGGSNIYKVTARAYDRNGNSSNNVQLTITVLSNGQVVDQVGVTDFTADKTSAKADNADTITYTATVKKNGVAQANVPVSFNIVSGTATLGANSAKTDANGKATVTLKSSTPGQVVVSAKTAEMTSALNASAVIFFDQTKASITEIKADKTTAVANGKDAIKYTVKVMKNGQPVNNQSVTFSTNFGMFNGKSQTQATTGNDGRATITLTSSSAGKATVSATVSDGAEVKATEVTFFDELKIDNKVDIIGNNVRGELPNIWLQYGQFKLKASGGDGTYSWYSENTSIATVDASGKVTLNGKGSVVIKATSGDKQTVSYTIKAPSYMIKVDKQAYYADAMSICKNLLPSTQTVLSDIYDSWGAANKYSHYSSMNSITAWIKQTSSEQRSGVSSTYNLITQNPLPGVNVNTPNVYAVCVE

B1: IB10 nanobody against intimin, yeast-displayed (VHH)
VHH: QVQLVESGGGSVQAGGSLRLSCKASGFTFPYSDMGWYRQTPGNECELVSTTGPESDPSFWYADSVKGRFTISRDNTKNTVYLQMNDLKPEDTGMYVCASELGAGSGRCYGYHYWGQGTQVTVSS
On to B1, for which the binding result in experiment [1] is given as “binds”.

B2: Nb3 (anti-P53TA) nanobody, yeast-displayed (VHH)
VHH: QVQLQESGGGSVRPGESLRLSCIAAGTLFSGKAVGWYRQAPGKDRELVAALSSGRETYYIGPVKGRFIISRDDNKDTLYLQMNNLKLEDTAIYTCRLGLHWGQGTQVTVSS
With B2, the binding result in experiment [2] was “no binding”.
